Drawing on PMC4612432 (The journal of physical chemistry. B, 2013), this text covers Kd, koff and kon for two molecules.

Test [1] has as its target T1, Wild-type human lysozyme (human) (UniProt P61626).
T1 sequence: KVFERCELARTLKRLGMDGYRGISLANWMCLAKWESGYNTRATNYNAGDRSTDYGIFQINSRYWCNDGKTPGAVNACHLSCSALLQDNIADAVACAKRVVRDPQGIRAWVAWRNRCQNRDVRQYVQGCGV
Put plainly: SPR. (In general: Surface plasmon resonance follows binding to a sensor surface in real time, without labels.)

The target in test [2] is T1, Wild-type human lysozyme (human). Put plainly: ITC.
The target in test [3] is Wild-type human lysozyme (Homo sapiens, UniProt P61626). The experiment in a line: SPR.

B1: cAb-HuL5G (VHH)
VHH: QVQLQESGGGSVQAGGSLRLSCSASGLSTTVMAWFRQAPGKEREGVAAIYTGDGFPYYADSVKGRFTISQDNAKNTVYLQMNSLKPEDTAMYYCAAKTGAFSYGSLWWMSRAYNHWGQGTEVTVSS
By Kd is commonly meant the free concentration of one partner at which half of the binding sites on the other are occupied at equilibrium, for simple one-to-one binding. As usually defined, the koff is a measure of how fast the partners let go of each other. Read a high koff as a short-lived complex. As a reminder, the kon is the second-order rate constant of association. A low value points to slow association. In test [1], B1 yielded a Kd of 310 nM, a koff of 0.128 s⁻¹ and a kon of 410000 M⁻¹ s⁻¹. This molecule also had a Kd in test [2] of 2500 nM.

B2: cAb-HuL5 (VHH)
VHH: QVQLQESGGGSVQAGGSLRLSCEASGLSTTVMAWFRQAPGKEREGVAAIYTGDGFPYYADSVKGRFTISQDNAKNRMYLQMNSLEPEDTAMYYCAAKTGAFSYGSLWWMSRAYNHWGQGTQVTVSS
In test [3], B2 gave a Kd of 460 nM, a koff of 0.088 ± 0.009 s⁻¹ and a kon of 190000 M⁻¹ s⁻¹.
